Results reported in the RNAGym collection of RNA variant scans (doi:10.1101/gr.219683.116).

B1: mRNA-splicing (parent)
chain: AGUUGCUGCUGGGAGCUCCAGCACAGUGAAAUGGACAGAAGGGCAGAGCAA

Variants of: B1
Experiment: exon inclusion enrichment index; higher = more inclusion; WT1 exon 5 minigene, HEK293

Variant	exon inclusion enrichment index
AGUUCUUCUCGGAGGCUCCAGCACAGUGAAAUGGACAGAAGGGCAGAGCAA [G5C C6U G8C C9U U10C G13A A14G]	2.03
AGUUCUUCUCGGAUGCUCCAGCACAGUGAAAUGGACAGAAGGGCAGAGCAA [G5C C6U G8C C9U U10C G13A A14U]	2.38
AGUUCUUCUCGGACGCUCCAGCACAGUGAAAUGGACAGAAGGGCAGAGCAA [G5C C6U G8C C9U U10C G13A A14C]	2.59
AGUUCUUCUCCAGAGCUCCAGCACAGUGAAAUGGACAGAAGGGCAGAGCAA [G5C C6U G8C C9U U10C G11C G12A]	0.634
AGUUCUUCUCCCGAGCUCCAGCACAGUGAAAUGGACAGAAGGGCAGAGCAA [G5C C6U G8C C9U U10C G11C G12C]	0.631
AGUUCUUCUCCUGAGCUCCAGCACAGUGAAAUGGACAGAAGGGCAGAGCAA [G5C C6U G8C C9U U10C G11C G12U]	0.675
AGUUCUUCUCGGGAGCUCUCGCACAGUGAAAUGGACAGAAGGGCAGAGCAA [G5C C6U G8C C9U U10C C19U A20C]	0.957
AGUUCUUCUCGGGAGCUCUUGCACAGUGAAAUGGACAGAAGGGCAGAGCAA [G5C C6U G8C C9U U10C C19U A20U]	0.25
AGUUCUUCUCGGGAGCUCUGGCACAGUGAAAUGGACAGAAGGGCAGAGCAA [G5C C6U G8C C9U U10C C19U A20G]	0.343
AGUUCUUCUCGAGAGCUCCAGCACAGUGAAAUGGACAGAAGGGCAGAGCAA [G5C C6U G8C C9U U10C G12A]	0.889
AGUUCUUCUCGCGAGCUCCAGCACAGUGAAAUGGACAGAAGGGCAGAGCAA [G5C C6U G8C C9U U10C G12C]	1.51
AGUUCUUCUCGUGAGCUCCAGCACAGUGAAAUGGACAGAAGGGCAGAGCAA [G5C C6U G8C C9U U10C G12U]	1.11
AGUUCUUCUCUGGAGCUCCAGCACAGUGAAAUGGACAGAAGGGCAGAGCAA [G5C C6U G8C C9U U10C G11U]	1
AGUUCUUCUCAGGAGCUCCAGCACAGUGAAAUGGACAGAAGGGCAGAGCAA [G5C C6U G8C C9U U10C G11A]	0.742
AGUUCUUCUCCGGAGCUCCAGCACAGUGAAAUGGACAGAAGGGCAGAGCAA [G5C C6U G8C C9U U10C G11C]	2.41
AGUUCUUCUCGGGAGCUCCAGCACAGUGAAAUGGAGGGAAGGGCAGAGCAA [G5C C6U G8C C9U U10C C36G A37G]	0.3
AGUUCUUCUCGGGAGCUCCAGCACAGUGAAAUGGAGCGAAGGGCAGAGCAA [G5C C6U G8C C9U U10C C36G A37C]	0.671
AGUUCUUCUCGGGAGCUCCAGCACAGUGAAAUGGAGUGAAGGGCAGAGCAA [G5C C6U G8C C9U U10C C36G A37U]	0.948
AGUUCUUCUCGGGAGCUCCAGUCCAGUGAAAUGGACAGAAGGGCAGAGCAA [G5C C6U G8C C9U U10C C22U A23C]	1.22
AGUUCUUCUCGGGAGCUCCAGUUCAGUGAAAUGGACAGAAGGGCAGAGCAA [G5C C6U G8C C9U U10C C22U A23U]	1.09
AGUUCUUCUCGGGAGCUCCAGUGCAGUGAAAUGGACAGAAGGGCAGAGCAA [G5C C6U G8C C9U U10C C22U A23G]	2.04
AGUUCUUCUCGGGAUAUCCAGCACAGUGAAAUGGACAGAAGGGCAGAGCAA [G5C C6U G8C C9U U10C G15U C16A]	1.38
AGUUCUUCUCGGGAGCUCGAGCACAGUGAAAUGGACAGAAGGGCAGAGCAA [G5C C6U G8C C9U U10C C19G]	1.61
AGUUCUUCUCGGGAGCUCUAGCACAGUGAAAUGGACAGAAGGGCAGAGCAA [G5C C6U G8C C9U U10C C19U]	0.105
AGUUCUUCUCGCUAGCUCCAGCACAGUGAAAUGGACAGAAGGGCAGAGCAA [G5C C6U G8C C9U U10C G12C G13U]	0.036
AGUUCUUCUCGCAAGCUCCAGCACAGUGAAAUGGACAGAAGGGCAGAGCAA [G5C C6U G8C C9U U10C G12C G13A]	0.931

Variant	exon inclusion enrichment index
AGUUCUUCUCGCCAGCUCCAGCACAGUGAAAUGGACAGAAGGGCAGAGCAA [G5C C6U G8C C9U U10C G12C G13C]	0.312
AGUUCUUCUCGGGAGCUCCAGCACAGUGAAAUGGAUCGAAGGGCAGAGCAA [G5C C6U G8C C9U U10C C36U A37C]	1.55
AGUUCUUCUCGGGAGCUCCAGCACAGUGAAAUGGAUGGAAGGGCAGAGCAA [G5C C6U G8C C9U U10C C36U A37G]	1.74
AGUUCUUCUCGGGAGCUCCAGCACAGUGAAAUGGAUUGAAGGGCAGAGCAA [G5C C6U G8C C9U U10C C36U A37U]	1.12
AGUUCUUCUCGGUGGCUCCAGCACAGUGAAAUGGACAGAAGGGCAGAGCAA [G5C C6U G8C C9U U10C G13U A14G]	0.52
AGUUCUUCUCGGUUGCUCCAGCACAGUGAAAUGGACAGAAGGGCAGAGCAA [G5C C6U G8C C9U U10C G13U A14U]	0.592
AGUUCUUCUCGGUCGCUCCAGCACAGUGAAAUGGACAGAAGGGCAGAGCAA [G5C C6U G8C C9U U10C G13U A14C]	0.936
AGUUCUUCUCGGGAGCUCGUGCACAGUGAAAUGGACAGAAGGGCAGAGCAA [G5C C6U G8C C9U U10C C19G A20U]	1.72
AGUUCUUCUCGGGAGCUCGCGCACAGUGAAAUGGACAGAAGGGCAGAGCAA [G5C C6U G8C C9U U10C C19G A20C]	1.8
AGUUCUUCUCGGGAGCUCGGGCACAGUGAAAUGGACAGAAGGGCAGAGCAA [G5C C6U G8C C9U U10C C19G A20G]	1.04
AGUUCUUCUCUCGAGCUCCAGCACAGUGAAAUGGACAGAAGGGCAGAGCAA [G5C C6U G8C C9U U10C G11U G12C]	0.558
AGUUCUUCUCUAGAGCUCCAGCACAGUGAAAUGGACAGAAGGGCAGAGCAA [G5C C6U G8C C9U U10C G11U G12A]	0.0218
AGUUCUUCUCUUGAGCUCCAGCACAGUGAAAUGGACAGAAGGGCAGAGCAA [G5C C6U G8C C9U U10C G11U G12U]	0.188
AGUUCUUCUCGGGAAUUCCAGCACAGUGAAAUGGACAGAAGGGCAGAGCAA [G5C C6U G8C C9U U10C G15A C16U]	1.27
AGUUCUUCUCGGGAAGUCCAGCACAGUGAAAUGGACAGAAGGGCAGAGCAA [G5C C6U G8C C9U U10C G15A C16G]	1.28
AGUUCUUCUCGGGAAAUCCAGCACAGUGAAAUGGACAGAAGGGCAGAGCAA [G5C C6U G8C C9U U10C G15A C16A]	1.24
AGUUCUUCUCGGGAACUCCAGCACAGUGAAAUGGACAGAAGGGCAGAGCAA [G5C C6U G8C C9U U10C G15A]	0.641
AGUUCUUCUCGGGACCUCCAGCACAGUGAAAUGGACAGAAGGGCAGAGCAA [G5C C6U G8C C9U U10C G15C]	2.54
AGUUCUUCUCGGGAUCUCCAGCACAGUGAAAUGGACAGAAGGGCAGAGCAA [G5C C6U G8C C9U U10C G15U]	2.23
AGUUCUUCUCGGUAGCUCCAGCACAGUGAAAUGGACAGAAGGGCAGAGCAA [G5C C6U G8C C9U U10C G13U]	0.0883
AGUUCUUCUCGGCAGCUCCAGCACAGUGAAAUGGACAGAAGGGCAGAGCAA [G5C C6U G8C C9U U10C G13C]	0.822
AGUUCUUCUCGGAAGCUCCAGCACAGUGAAAUGGACAGAAGGGCAGAGCAA [G5C C6U G8C C9U U10C G13A]	2.18
AGUUCUUCUCAAGAGCUCCAGCACAGUGAAAUGGACAGAAGGGCAGAGCAA [G5C C6U G8C C9U U10C G11A G12A]	0.685
AGUUCUUCUCAUGAGCUCCAGCACAGUGAAAUGGACAGAAGGGCAGAGCAA [G5C C6U G8C C9U U10C G11A G12U]	0.314
AGUUCUUCUCACGAGCUCCAGCACAGUGAAAUGGACAGAAGGGCAGAGCAA [G5C C6U G8C C9U U10C G11A G12C]	0.41
